According to patent publication US20180273587A1 (AILERON THERAPEUTICS, published 2018):
Starred links: 1 amine or outer side, 2 acyl side, 3 side chain; linkers in the order of their positions; H or OH if unused. Positions of bridges follow the written chain, without caps; N, C: chain ends. Non-standard residues stand in square brackets, D forms with d. St = two pentenyl-alanine olefin side chains, each crosslinked to another residue (stitch), C=CCCCC(CCCC=C)(N[*:1])C(=O)[*:2]; Phe(4-F) = N[C@@H](Cc1ccc(F)cc1)C(=O)O; 2Nal = N[C@@H](Cc1ccc2ccccc2c1)C(=O)O; hPhe = N[C@@H](CCc1ccccc1)C(=O)O; R8 = C=CCCCCCC[C@@](C)(N)C(=O)O; Cha = N[C@@H](CC1CCCCC1)C(=O)O; S8 = C=CCCCCCC[C@](C)(N)C(=O)O; S5 = C=CCCC[C@](C)(N)C(=O)O

What was measured:
Test in all cases: Ki; method not stated; unit not printed (nM per Table 6)
BCL-2 = target: T1, BCL-2 (UniProt P10415 1-217, limits assumed)
T1 construct: Target of the Ki columns
T1 sequence (P10415 1-217 limits assumed): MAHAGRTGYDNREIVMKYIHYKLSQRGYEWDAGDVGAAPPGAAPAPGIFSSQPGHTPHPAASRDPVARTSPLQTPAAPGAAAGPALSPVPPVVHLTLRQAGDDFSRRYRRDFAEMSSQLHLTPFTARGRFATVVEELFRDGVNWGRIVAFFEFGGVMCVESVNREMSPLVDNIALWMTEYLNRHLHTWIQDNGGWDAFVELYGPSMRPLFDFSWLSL

BCL-XL = target: T2, BCL-XL (UniProt Q07817 1-209)
T2 construct: Target of the Ki columns
T2 sequence (Q07817 1-209): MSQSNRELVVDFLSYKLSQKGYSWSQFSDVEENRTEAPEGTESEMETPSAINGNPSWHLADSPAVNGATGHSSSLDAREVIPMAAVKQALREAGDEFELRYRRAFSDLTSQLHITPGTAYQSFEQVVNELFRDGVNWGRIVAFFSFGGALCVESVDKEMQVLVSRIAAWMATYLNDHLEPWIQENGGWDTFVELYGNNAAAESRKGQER

MCL-1 = target: T3, MCL-1 (UniProt Q07820 172-327, limits assumed)
T3 construct: Target of the Ki columns; also called Myeloid cell leukemia 1
T3 sequence (Q07820 172-327 limits assumed): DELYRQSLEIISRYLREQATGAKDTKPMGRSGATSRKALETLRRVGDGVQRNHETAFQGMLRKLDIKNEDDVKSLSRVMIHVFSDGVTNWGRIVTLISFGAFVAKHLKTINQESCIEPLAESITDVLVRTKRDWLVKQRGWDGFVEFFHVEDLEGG

B1: SEQ ID NO: 1755 (peptide)
peptide: Ac-IWIAQALR[R8]IGDAFN[S5]YLA-NH2
modifications: staple 9-16
SMILES: CC[C@H](C)[C@H](NC(C)=O)C(=O)N[C@@H](Cc1c[nH]c2ccccc12)C(=O)N[C@H](C(=O)N[C@@H](C)C(=O)N[C@@H](CCC(N)=O)C(=O)N[C@@H](C)C(=O)N[C@@H](CC(C)C)C(=O)N[C@@H](CCCNC(=N)N)C(=O)N[C@]1(C)CCCCCCC=CCCC[C@@](C)(C(=O)N[C@@H](Cc2ccc(O)cc2)C(=O)N[C@@H](CC(C)C)C(=O)N[C@@H](C)C(N)=O)NC(=O)[C@H](CC(N)=O)NC(=O)[C@H](Cc2ccccc2)NC(=O)[C@H](C)NC(=O)[C@H](CC(=O)O)NC(=O)CNC(=O)[C@H]([C@@H](C)CC)NC1=O)[C@@H](C)CC
- Ki (BCL-2): 18.9 nM
- Ki (BCL-XL): 9 nM
- Ki (MCL-1): 23.4 nM

B2: SEQ ID NO: 1783 (peptide)
peptide: Ac-IWIA[S5]ALR[St]IGDEFN[S8]YYA-NH2
modifications: staple 9-16, 5-9
notes: Row prints Ac-IWIA$ALRStIGDEFN$s8YYA-NH2
- Ki (BCL-2): 19.2 nM
- Ki (BCL-XL): 1.6 nM
- Ki (MCL-1): 1.6 nM

B3: SEQ ID NO: 1769 (peptide)
peptide: Ac-IWIAQALR[R8]IGDAFN[S5][Phe(4-F)]YA-NH2
modifications: staple 9-16
SMILES: CC[C@H](C)[C@H](NC(C)=O)C(=O)N[C@@H](Cc1c[nH]c2ccccc12)C(=O)N[C@H](C(=O)N[C@@H](C)C(=O)N[C@@H](CCC(N)=O)C(=O)N[C@@H](C)C(=O)N[C@@H](CC(C)C)C(=O)N[C@@H](CCCNC(=N)N)C(=O)N[C@]1(C)CCCCCCC=CCCC[C@@](C)(C(=O)N[C@@H](Cc2ccc(F)cc2)C(=O)N[C@@H](Cc2ccc(O)cc2)C(=O)N[C@@H](C)C(N)=O)NC(=O)[C@H](CC(N)=O)NC(=O)[C@H](Cc2ccccc2)NC(=O)[C@H](C)NC(=O)[C@H](CC(=O)O)NC(=O)CNC(=O)[C@H]([C@@H](C)CC)NC1=O)[C@@H](C)CC
- Ki (BCL-2): 200 nM
- Ki (BCL-XL): 26 nM
- Ki (MCL-1): 14.9 nM

B4: SEQ ID NO: 1782 (peptide)
peptide: Ac-I[R8]IAQALR[St]IGDEFN[S8]YYA-NH2
modifications: staple 9-16, 2-9
notes: Row prints Ac-I$r8IAQALRStIGDEFN$s8YYA-NH2
- Ki (BCL-2): 22 nM
- Ki (BCL-XL): 1.1 nM
- Ki (MCL-1): 1.1 nM

B5: SEQ ID NO: 1758 (peptide)
peptide: Ac-IWIAQALR[R8]IGDAFN[S5]YWA-NH2
modifications: staple 9-16
SMILES: CC[C@H](C)[C@H](NC(C)=O)C(=O)N[C@@H](Cc1c[nH]c2ccccc12)C(=O)N[C@H](C(=O)N[C@@H](C)C(=O)N[C@@H](CCC(N)=O)C(=O)N[C@@H](C)C(=O)N[C@@H](CC(C)C)C(=O)N[C@@H](CCCNC(=N)N)C(=O)N[C@]1(C)CCCCCCC=CCCC[C@@](C)(C(=O)N[C@@H](Cc2ccc(O)cc2)C(=O)N[C@@H](Cc2c[nH]c3ccccc23)C(=O)N[C@@H](C)C(N)=O)NC(=O)[C@H](CC(N)=O)NC(=O)[C@H](Cc2ccccc2)NC(=O)[C@H](C)NC(=O)[C@H](CC(=O)O)NC(=O)CNC(=O)[C@H]([C@@H](C)CC)NC1=O)[C@@H](C)CC
- Ki (BCL-2): 23.5 nM
- Ki (BCL-XL): 15.4 nM
- Ki (MCL-1): 3.9 nM

B6: SEQ ID NO: 1759 (peptide)
peptide: Ac-IWIAQALR[R8]IGDAFN[S5]Y[2Nal]A-NH2
modifications: staple 9-16
SMILES: CC[C@H](C)[C@H](NC(C)=O)C(=O)N[C@@H](Cc1c[nH]c2ccccc12)C(=O)N[C@H](C(=O)N[C@@H](C)C(=O)N[C@@H](CCC(N)=O)C(=O)N[C@@H](C)C(=O)N[C@@H](CC(C)C)C(=O)N[C@@H](CCCNC(=N)N)C(=O)N[C@]1(C)CCCCCCC=CCCC[C@@](C)(C(=O)N[C@@H](Cc2ccc(O)cc2)C(=O)N[C@@H](Cc2ccc3ccccc3c2)C(=O)N[C@@H](C)C(N)=O)NC(=O)[C@H](CC(N)=O)NC(=O)[C@H](Cc2ccccc2)NC(=O)[C@H](C)NC(=O)[C@H](CC(=O)O)NC(=O)CNC(=O)[C@H]([C@@H](C)CC)NC1=O)[C@@H](C)CC
- Ki (BCL-2): 65.2 nM
- Ki (BCL-XL): 26.1 nM
- Ki (MCL-1): 8 nM

B7: SEQ ID NO: 1775 (peptide)
peptide: Ac-IWIAQALR[R8]IGDAFN[S5]AYA-NH2
modifications: staple 9-16
SMILES: CC[C@H](C)[C@H](NC(C)=O)C(=O)N[C@@H](Cc1c[nH]c2ccccc12)C(=O)N[C@H](C(=O)N[C@@H](C)C(=O)N[C@@H](CCC(N)=O)C(=O)N[C@@H](C)C(=O)N[C@@H](CC(C)C)C(=O)N[C@@H](CCCNC(=N)N)C(=O)N[C@]1(C)CCCCCCC=CCCC[C@@](C)(C(=O)N[C@@H](C)C(=O)N[C@@H](Cc2ccc(O)cc2)C(=O)N[C@@H](C)C(N)=O)NC(=O)[C@H](CC(N)=O)NC(=O)[C@H](Cc2ccccc2)NC(=O)[C@H](C)NC(=O)[C@H](CC(=O)O)NC(=O)CNC(=O)[C@H]([C@@H](C)CC)NC1=O)[C@@H](C)CC
- Ki (BCL-2): 112 nM
- Ki (BCL-XL): 12.6 nM
- Ki (MCL-1): 5.3 nM

B8: SEQ ID NO: 1756 (peptide)
peptide: Ac-IWIAQALR[R8]IGDAFN[S5]Y[Cha]A-NH2
modifications: staple 9-16
SMILES: CC[C@H](C)[C@H](NC(C)=O)C(=O)N[C@@H](Cc1c[nH]c2ccccc12)C(=O)N[C@H](C(=O)N[C@@H](C)C(=O)N[C@@H](CCC(N)=O)C(=O)N[C@@H](C)C(=O)N[C@@H](CC(C)C)C(=O)N[C@@H](CCCNC(=N)N)C(=O)N[C@]1(C)CCCCCCC=CCCC[C@@](C)(C(=O)N[C@@H](Cc2ccc(O)cc2)C(=O)N[C@@H](CC2CCCCC2)C(=O)N[C@@H](C)C(N)=O)NC(=O)[C@H](CC(N)=O)NC(=O)[C@H](Cc2ccccc2)NC(=O)[C@H](C)NC(=O)[C@H](CC(=O)O)NC(=O)CNC(=O)[C@H]([C@@H](C)CC)NC1=O)[C@@H](C)CC
- Ki (BCL-2): 28.9 nM
- Ki (BCL-XL): 8.6 nM
- Ki (MCL-1): 24.1 nM

B9: SEQ ID NO: 1757 (peptide)
peptide: Ac-IWIAQALR[R8]IGDAFN[S5]Y[hPhe]A-NH2
modifications: staple 9-16
SMILES: CC[C@H](C)[C@H](NC(C)=O)C(=O)N[C@@H](Cc1c[nH]c2ccccc12)C(=O)N[C@H](C(=O)N[C@@H](C)C(=O)N[C@@H](CCC(N)=O)C(=O)N[C@@H](C)C(=O)N[C@@H](CC(C)C)C(=O)N[C@@H](CCCNC(=N)N)C(=O)N[C@]1(C)CCCCCCC=CCCC[C@@](C)(C(=O)N[C@@H](Cc2ccc(O)cc2)C(=O)N[C@@H](CCc2ccccc2)C(=O)N[C@@H](C)C(N)=O)NC(=O)[C@H](CC(N)=O)NC(=O)[C@H](Cc2ccccc2)NC(=O)[C@H](C)NC(=O)[C@H](CC(=O)O)NC(=O)CNC(=O)[C@H]([C@@H](C)CC)NC1=O)[C@@H](C)CC
- Ki (BCL-2): 30.7 nM
- Ki (BCL-XL): 12.1 nM
- Ki (MCL-1): 8 nM

B10: SEQ ID NO: 1737 (peptide)
peptide: Ac-IWIAAALK[R8]IGDAFN[S5]YYA-NH2
modifications: staple 9-16
SMILES: CC[C@H](C)[C@H](NC(C)=O)C(=O)N[C@@H](Cc1c[nH]c2ccccc12)C(=O)N[C@H](C(=O)N[C@@H](C)C(=O)N[C@@H](C)C(=O)N[C@@H](C)C(=O)N[C@@H](CC(C)C)C(=O)N[C@@H](CCCCN)C(=O)N[C@]1(C)CCCCCCC=CCCC[C@@](C)(C(=O)N[C@@H](Cc2ccc(O)cc2)C(=O)N[C@@H](Cc2ccc(O)cc2)C(=O)N[C@@H](C)C(N)=O)NC(=O)[C@H](CC(N)=O)NC(=O)[C@H](Cc2ccccc2)NC(=O)[C@H](C)NC(=O)[C@H](CC(=O)O)NC(=O)CNC(=O)[C@H]([C@@H](C)CC)NC1=O)[C@@H](C)CC
- Ki (BCL-2): 25.6 nM
- Ki (BCL-XL): 11.7 nM
- Ki (MCL-1): 23.2 nM
